Consider one molecule from article PMC8244865, “Recruitment of phospholipase Cγ1 to the non-structural membrane protein pK15 of Kaposi Sarcoma-associated herpesvirus promotes its Src-dependent phosphorylation” (PLoS Pathogens, 2021).

Assay type in all cases: binding
In one assay the test system is PLCγ1 SA. As to the kind of experiment: GST-pulldown, PLCγ1 SA. Here is the method: Fig 2 K15 phosphorylation results in a stronger binding to PLCγ1. (A) An expression plasmid for an S-tagged full length PLCγ1 or the empty vector (EV) were transfected in HEK-293T cells. After 30h cells were lysed and a GST-pulldown assay was performed with GST-fused pK15 CT (WT), the pK15 CT Y^481F mutant (Y^481F) or GST that had been bound to glutathione beads and previously phosphorylated by GST-6xHis Src (+) or left unphosphorylated (-). Bound proteins were analysed by WB using antibodies to the S tag on PLCγ1 and pTyr. (B) Untransfected HEK-293T cells were lysed and a GST-pulldown assay with pre-phosphorylated (+) or unphosphorylated (-) GST-fused pK15 CT WT/Y^481F or GST was performed and analysed by WB as in (A). (C) An expression plasmid for an S-tagged PLCγ1 SA or the empty vector were transfected in HEK-293T cells. […]
(§1) HEK293T cells were washed once with cold PBS 30 hours after transfection, lysed in IP buffer (50 mM Tris pH7.6, 60 mM NaCl, 6.25 mM EDTA, 1% (v/v) glycerol, 0.04% (v/v) NP-40) on ice for 30 minutes, sonicated shortly and cleared by centrifugation for 10 minutes at 20.000g, 4°C. […] Beads were then washed 5 times in 500 μl IP buffer (or for purified proteins IP buffer with 200 mM NaCl), suspended in 10 μl of 5x Laemmli sample buffer (60 mM Tris pH6.8, 24% (v/v) glycerol, 2% (v/v) SDS, 5% (v/v) β-mercaptoethanol, 0.01% Bromphenol Blue) and analysed by western blot.

The test system of another assay is PLCγ1 SA R586L or R694L. As to the kind of experiment: GST-pulldown, PLCγ1 SA R586L or R694L. The conditions noted are these: phosphorylated, HEK 293T, versus WT. The protocol:
Fig 3 Contribution of individual PLCγ1 SH2 domains to the interaction with phosphorylated pK15. The pK15 CT fused to GST, its Y^481F mutant, or GST alone were bound to glutathione beads, phosphorylated in vitro (+) or left unphosphorylated (-), and a GST pulldown was performed 32h after transfection into HEK-293T cells of expression vectors for S-tagged full-length PLCγ1 (FL) (A) or PLCγ1 SA (B) containing the indicated mutations. (C) pK15 CT WT, its Y^481F mutant or GST were bound to glutathione beads, phosphorylated in vitro (+) or left unphosphorylated (-), and used for a GST pulldown assay 32h after transfecting HEK 293T cells with expression vectors for S-tagged individual PLCγ1 nSH2 or cSH2 domains. […]
as §1

The subject of assay [1] is PLCγ1 SA and PLCγ1 tSH2, cSH2 R^694L mutant. Kind of assay: AlphaLISA, SA and tSH2 R694L mutant. The following applies: phosphorylated; 300 nM each protein. The protocol:
(§2) Fig 4 The PLCγ1 cSH2 domain is required for the binding of PLCγ1 to phosphorylated pK15 in vitro and may serve as a dominant-negative inhibitor. GST-fused pK15 cytoplasmic tail WT (A), or its truncated mutant N2 [51] (B), were phosphorylated in vitro by 2xStrep-Src and an AlphaLISA was performed with the indicated His-tagged fragments of PLCγ1. Mean and standard deviation from at least two independent experiments with two technical replicates each are depicted. GST fusion proteins of the N1 (C) or N2 (D) truncation mutants of the pK15 cytoplasmic tail were phosphorylated in vitro by 2xStrep-Src and their interaction with recombinant purified PLCγ1 tSH2 (tandem SH2) or SA (γ-specific array) domains was measured by AlphaLISA in the presence of increasing concentrations (300 nM, 600 nM, 900 nM, 1200 nM) of the purified PLCγ1 cSH2. […] After 48h lysates were collected and analysed by Western blot using an antibody to PLCγ1 pY^783 to assess the level of PLCγ1 phosphorylation. (F) The intensities of the pPLCγ1 bands shown in panel E were quantified by densitometry, normalized to the values obtained with the empty vector (EV) in the presence of pK15, and plotted as relative values. […]
(§3) His-tagged PLCγ1 (SA, tSH2 or the isolated SH2 domains) was incubated at room temperature with GST-tagged K15P or its mutants for 1 hour. […] Emission at 615 nm was detected on BioTek Synergy 2 plate reader.

For another assay, the system named is PLCγ1 cSH2 domain. Kind of assay: AlphaLISA, isolated PLCγ1 cSH2. The following applies: phosphorylated, 300 nM each protein, domain tested individually. Here is the method:
as §2, §3
On the technique in general: Bead proximity is the source of the signal in Alpha formats.

B1: pK15 CT^WT: pK15 cytoplasmic tail fused to GST at its N-terminal end, phosphorylated in vitro by Src (protein)
chain: SQLLNEVELQEVNRDPPNVFGYASILVSGAEESREPSPQPDQSGMSILRVDGGSAFRIDTAQAATQPTDDLYEEVLFPRN
modifications: tyrosine-phosphorylated in vitro by Src; sites not stated for this construct; left off: GST, N-terminal, kept
As to B1, in the assay with PLCγ1 SA (in vitro phosphorylated by Src, transfected SA in HEK 293, Western blot), the “interaction with PLCγ1 SA (GST-pulldown)” value is “bound more strongly to the SA region than the phosphorylated pK15 CT^Y481F mutant”. In addition, the “interaction with PLCγ1 SA, unphosphorylated (GST-pulldown)” value with PLCγ1 SA (without prior in vitro phosphorylation by Src kinase) was “marginal binding to PLCγ1 SA”. Besides, the “binding of mutants (GST-pulldown)” value with PLCγ1 SA R586L or R694L is recorded as “strongly reduced binding”. The “interaction (AlphaLISA)” value in assay [1] is “markedly reduced binding”; in the assay with PLCγ1 cSH2 domain, “only the PLCγ1 cSH2 domain (and not the nSH2 domain) interacted”; in the assay on PLCγ1 cSH2 domain (listed as pK15 CT^N2), “did interact with the tSH2 and cSH2 domains”.
